Molecular target: coconut protein (coconut)
Assay: ITC; Malvern MicroCal PEAQ-ITC; cell 200 uL with the low-concentration solution, syringe with the high-concentration solution (not told which held which); 13 injections of 3 uL; both solutions dialysed; fit with two sets of constants (N1/N2, K1, K2)

K1: 4.33 µM
K2: 136 µM
N1: 2.69
N2: 1.51
dH1: -11.5 kJ/mol
dH2: -6.34 kJ/mol
Substance: gelatin
